# Source: PMC9959916, “A Highly Conserved Region in BRCA2 Suppresses the RAD51-Interaction Activity of BRC Repeats” (Veterinary Sciences, 2023)
# Numbering of substitutions follows the chain as printed.
# B1: Gal4 DNA-binding domain-fused cBRC1-HCR-BRC2 (canine BRCA2 993–1248 aa) [canine (Canis lupus familiaris)] / VP16-fused canine RAD51 [canine] (parent complex)
# chain 1: PISNHSFENGFKTASNKEIKLSENNIRKSKMLFKDIEEHYPTNLACLEIVNTSSLESQKKPSKSHALDPQSINIISGFVQNSTYVSDSESGHTAPPTLSLKQDFDSNRNLTPSQKAEITELSTILEESGSQFEFTQFRKPSHIIQKNPFEMPENQLTILNSTSKEWKDDDLHLTTNAPSISQVDSKKSEGIIGGKQKFACLSRTSCNRSASGYSTDKNEVEFRGFYSARGTKLNVGSEALQKAKKLFSDLENINEE
# chain 2: MAMQMQLEANADTSVEEESFGPQPISRLEQCGINANDVKKLEEAGFHTVEAVAYAPKKELISIKGISEAKADKILTEAAKLVPMGFTTATEFHQRRSEIIQITTGSKELDKLLQGGIETGSITEMFGEFRTGKTQICHTLAVTCQLPIDRGGGEGKAMYIDTEGTFRPERLLAVAERYGLSGSDVLDNVAYARGFNTDHQTQLLYQASAMMVESRYALLIVDSATALYRTDYSGRGELSARQMHLARFLRMLLRLADEFGVAVVITNQVVAQVDGAAMFAADPKKPIGGNIIAHASTTRLYLRKGRGETRICKIYDSPCLPEAEAMFAINADGVGDAKD
# B2: FLAG-HA-NLS-fused cBRC1-HCR-BRC2 (canine BRCA2 993–1248 aa) [canine (Canis lupus familiaris)] / endogenous RAD51 (HeLa cells) [human (endogenous in HeLa)] (parent complex)
# chain 1: B1 chain 1
# chain 2: B1 chain 2 with S62N, T76A, G194A
# Variants of: B1
# Experiment: mammalian two-hybrid assay; n = 4; parent: 3.1; read off a plot
row,response [Firefly/Renilla],Variant
1,~2.6,chain 1 S122P
2,~3.3,chain 1 I118M
3,~2,chain 1 T123P

# Variants of: B2
# Experiment: co-immunoprecipitation (anti-FLAG IP, Western blot quantification); lysates from HeLa cells stably expressing the FLAG-HA-NLS-fused peptide; parent: 1
row,ratio to parent,Variant
1,0.92,chain 1 I118M
2,0.57,chain 1 T123P
3,0.52,chain 1 S122P
